Experimental data reported in the DeepSol protein solubility set.

Assay: soluble on expression in E. coli; label from the status in PepcDB or PDB records

Sequence	soluble on expression in E. coli
MSSKPLYTILTVFNPIFIYFTKRDNLHTLRFKKDRAIKISEELFPDELCERCGRCCILHAYKTEDGIKTIYCEHLDPETKLCKVYKDRFKHRCLTVMEGILAGVFPKDCPYVKNLKNYEEPWFYRHLRDLEHHHHHH	not soluble
MSSPGGETSTKQQQELKAQIKIGHYILKETLGVGTFGKVKVGIHETTQYKVAVKILNRQKIKSLDVVGKIRREIQNLSLFRHPHIIRLYQVISTPSDIFMIMEHVSGGELFDYIVKHGRLKTAEARRFFQQIISGVDYCHRHMVVHRDLKPENLLLDEQNNVKIADFGLSNIMTDGDFLRTSCGSPNYAAPEVISGKLYAGPEVDVWSCGVILYALLCGTLPFDDEHVPSLFRKIKSGVFPTPDFLERPIVNLLHHMLCVDPMKRATIKDVIAHEWFQKDLPNYLFPPINESEASIVDIEAVREVTERYHVAEEEVTSALLGDDPHHHLSIAYNLIVDNKRIADETAKLSIEEFYQVTPNKGPGPVHRHPERIAASVSSKITPTLDNTEASGANRNKRAKWHLGIRSQSRPEDIMFEVFRAMKQLDMEWKVLNPYHVIVRRKPDAPAADPPKMSLQLYQVDQRSYLLDFKSLADEESGSASASSSRHASMSMPQKPAGIRGTRTSSMPQAMSMEASIEKMEVHDFSDMSCDVTPPPSPGGAKLSQTMQFFEICAALIGTLAR	not soluble
MSSPGGGTRFALVAGTTETAGRAGISAAGADPELMSVTPAADAELVTYGTPVRTDVTPVSPSGCPTPALVTRAAREVLGFDVTVVDGGLAEKTGAPTVSVGARPGKDIAEQDPVSTAHGAFAAARQFGQSLPADELYLGETIPGGTTTALGVLRALGEDGMVSSSLPENPTAQKSEVVAEGLQASSLEPGDAANEPKRAVRRMGDPVLATLAGLTAGAVESDTAVTLAGGSQCVAVAALVRHGGYEGPLGLATTSYVADDESADVRASVDRLDLDLTVTDPGFDRSDHVAMERFVAGEAKEGVGMGGALALADRAGIPMAEVRDRFAAIYDDLIGDAPTATAEERT	not soluble
MSSPHSLRQQYQSLIASGSIEADPAQARAVQAFTLLNETLDGYKPPKKQGFFGRLFGGGDAGQAPPQGLYIHGEVGRGKTMLMDLFFDASPIALKRRSHFHEFMAETHDRINGFRQAIKRGDIPDADVMELTAASILDEAWLLCFDEFHVTDIADAMILGRLFTKLFELGTVVVATSNVAPDDLYKGGLNRSLFMPFIGQVKRHMRVIRLDARTDYRLEKFAGMKVWLAPDDAEATATIDRAWHRITGTTKGEPRDISIKGRILHVPQADHHVARFSFADLCQKPLGASDYLRLAHEYHTLMIDHVPVMDYADRNAAKRFIALIDTLYDNSVKLMASAAAEPARLYRATEGFEALEFNRTVSRLTEMGSESYLALPHGRRDSTATGETTGLVETMAGDPLEHHHHHH	not soluble
MSSQSIDDKFMSITQMKNLIHYVKKNDALSHLCIYILIITGSRFKPVQHLRYEDLNFKKSCIHLNDTKNKYSKRNVKVRIKDLEYIQSVINKHPINQNGYIFHNFINFISYSAINDVLVRFCLKYKYDKYTLKSLRHTHCSYLLAKGISIQYISKRLGHADIHTTLKIYSHLIKEFEDSENSLIEKNLNDLFSDLEHHHHHH	not soluble
MSSRAVSLLSRVISQNRGLASLRETVGERDASLLYEPKFQDSREFPEYNTINVRIQGHDFGSLEKYQAYIHKTAKRFGFTVVDSYAVAAQTQKAITYKPYSTVSESEIDMSTYDRVVRLSDVAAPRFSLFSQIIRAHIPIGVTMTVKEHEKVDEDSRYIPDLLLKQKQEELKALDDPNVRRNLGWE	not soluble
MSSSHSRAGQSAAGAAPGGGVDTRDAEMPATEKDLAEDAPWKKIQQNTFTRWCNEHLKCVSKRIANLQTDLSDGLRLIALLEVLSQKKMHRKHNQRPTFRQMQLENVSVALEFLDRESIKLVSIDSKAIVDGNLKLILGLIWTLILHYSISMPMWDEEEDEEAKKQTPKQRLLGWIQNKLPQLPITNFSRDWQSGRALGALVDSCAPGLCPDWDSWDASKPVTNAREAMQQADDWLGIPQVITPEEIVDPNVDEHSVMTYLSQFPKAKLKPGAPLRPK	soluble
MSSTKIDTTKPLSILLLGVDTGADGRIDKGNSDTIMVVTINPQTKKTLITSIPRDSLAEMVGDQDTNVQKLNAAYNIGGSKMAKASVSKLFNVPIDYYATINMGGLKQIVDAVGGVTITSPLNVSFDHITVTKGKHHLNGKQALSYTRMRYQDPRGDYGRQLRQQQVMRAVLAKLAETKTYSRYNQLLTSLKGNLQTDLSFNDLVGLATHDRANMKHIQSTQVIGSPAWINTSSYQILSTKTLQQTSDRLRTQLGLSTETLTNMETKLNAKNTVYDGKTNLNYDTQGLDKITYSDNTKLEHHHHHH	soluble
MSSTRTASGRTSGRNGTWRNWGGNVSARPAREVTPASVDELADAVRRAAEDGQRVKAVGTGHSFTSIAATDGVLIRPQLLTGIRSIDRDAMTVTVEAGTPLKRLNMALAREGLSLTNMGDIMEQTVSGATSTGTHGTGRDSASIAAQIRGLELVTADGSVLTCSADENPEVFAAARIGLGALGVVTAITFAVEPVFLLTAREEPMPFDRVLADFDALWSENEHFEFYWFPHTNSTNTKRNNRSAGPERPVGRFQGWLDDEFLSNGLFQAVNWVGRAAPATIPSIARISSRALSARTYTDTPYKVFTSPRRVRFVEMEYAVPREAVVEVLRELRTMVDRSRLRISFPVEVRTAPADDITLSTASARDSAYIAVHMFRGTPYQAYFTAAERIFTAHEGRPHWGKVHTRDAGYFSRVYPRFGEFTALRDRLDPDRLFQNDYLRRVLGPLEHHHHHH	soluble
MSSVVVVGTQWGDEGKGKITDFLSEHAEVVARYQGGNNAGHTIVFGGVKYKLHLIPSGIFYKEKICVIGNGLVVDPKALLEELKYLHDRGVSTDNLRVSNRAHVILPYHLKQDELEEASKGDNKIGTTKKGIGPAYMDKAARIGIRMADLLDREAFKEKLEQNLAQKNRLFEKMYDTEGFSVDEIFEEYFEYGQQIAQYVCDTSVVLNDALDNNHRVLFEGAQGVMLDIDHGTYPFVTSSNPIAGGVTVGTGVGPAKVTRVVGVCKAYTSRVGDGPFPTELHDEIGHQIREVGREYGTTTGRPRRVGWFDSVVVRHARRVSGLTDLSLNSIDVLTGIPTLKICVAYKCDGKVIDEVPANLNILAKCEPVYEELPGWTEDITGVRSLDELPENARKYVERVSELTGIQLSMFSVGPDRNQTNIVRNVYEA	not soluble
MSSYEMFADKNIVAGELANLMASAGWGTEGDYDATAIEKSLSAYPMIAYCRDSDGLLVGYISAFTDGAFSTFVGELVVRPTYQQRGIGSALLAMIVEKCRGVPVYATPFQGTEKFFLDRGFRVPERPMSVVSMRNVT	not soluble
MSTAAKQNRSTSRVSKKKTAAPKEGAAKKSDKGHKYEYVELAKASLTSAQPQHFYAVVIDATFPYKTNQERYICSLKIVDPTLYLKQQKGAGDASDYATLVLYAKRFEDLPIIHRAGDIIRVHRATLRLYNGQRQFNANVFYSSSWALFSTDKRSVTQEINNQDAVSDTTPFSFSSKHATIEKNEISILQNLRKWANQYFSSYSVISSDMYTALNKAQAQKGDFDVVAKILQVHELDEYTNELKLKDASGQVFYTLSLKLKFPHVRTGEVVRIRSATYDETSTQKKVLILSHYSNIITFIQSSKLAKELRAKIQDDHSVEVASLKKNVSLNAVVLTEVDKKHAALPSTSLQDLFHHADSDKELQAQDTFRTQFYVTKIEPSDVKEWVKGYDRKTKKSSSLKGASGKGDNIFQVQFLVKDASTQLNNNTYRVLLYTQDGLGANFFNVKADNLHKNADARKKLEDSAELLTKFNSYVDAVVERRNGFYLIKDTKLIY	soluble
MSTDTSGVGVREIDAGALPTRYARGWHCLGVAKDYLEGKPHGVEAFGTKLVVFADSHGDLKVLDGYCRHMGGDLSEGTVKGDEVACPFHDWRWGGDGRCKLVPYARRTPRMARTRSWTTDVRSGLLFVWHDHEGNPPDPAVRIPEIPEAASDEWTDWRWNRILIEGSNCRDIIDNVTDMAHFFYIHFGLPTYFKNVFEGHIASQYLHNVGRPDVDDLGTSYGEAHLDSEASYFGPSFMINWLHNRYGNYKSESILINCHYPVTQNSFVLQWGVIVEKPKGMSEEMTDKLSRVFTEGVSKGFLQDVEIWKHKTRIDNPLLVEEDGAVYQLRRWYEQFYVDVADIKPEMVERFEIEVDTKRANEFWNAEVEKNLKSREVSDDVPAEQH	soluble
MSTGTPTTQKVVKTSIRLGPVNPPTPTRNTQGGHGFSAEFLEYRRRRQERHTVRLAKLPNETLIIGGANPFDARNVPEAIKKFRDLVDEKIGDKVHKKDANKSKIVFREEEEETQNGTITID	not soluble
MSTHFGYKTVEADKKADLVAGVFHSVAAKYDIMNDVMSFGIHRFWKRYTIEVSGARPGMKVLDLAGGTGDLTAKFSHLVGDKGEVVLADINDSMLKVGRTKLRDRGIVSNVSYVQANAEALPFPDNHFDIITIAFGLRNVTDKDAALRSMNRVLKPGGKLLVLEFSKPQHEVMRKVYDLYSFKVLPKMGQLITKDADSYEYLAESIRMHPDQDTLKQMMVDAGFEQVDYTNMTDGIVALHRGYKLEHHHHHH	not soluble
MSTIDFRPYGGFIFDMDGTLIDTMPAHLAAWQATADRFDFPFCQEWLHSLGGMPSFKIVAELNRHYGLSLDPQTVSKFKMETFAAMELQGDVIQCTGIVLEEYLGQKKIAVGTGSQRESAMRLLSHAGLIDRLDAVVTASDVENHKPCPDTFLLAADRLGIDAQNCLVFEDTELGKRAAHSAGMDCVMVEGNNLVFYPKR	not soluble
MSTKNRTRRTTTRNIRFPNQMIEQINIALDQKGSGNFSAWVIEACRRRLTSEKRAYTSIKSDEE	soluble
MSTKPPIERIMYIQMRTSLEMFRSDLVDLEALANAAKEALEQLPYIPKEPCGKGEDDPLSGPESALRTGRLCGLVCCTATAAENALSTCSKLIDWAYANEPDGVDDAVLADDDDDDDDDDEGGGNGANGGGGTNGGGDGSNGSGNGSPPDGGGVGAAPSPGRGELAETRPSRSGVALDLTPAPAPAGTPVA	not soluble
MSTKRKIVVSSDSDDDMPFTQEKQKKAATPAKKRTKPVVLTDDDEEEENAPQKKTAPKRSRKQEKEESDITSDEDELVRGTDEKKKRKGGKKELPVGQKTLDYMFKPSSSSSKRDDPKKKVEKTLVNPADFFKNSPAPSASKLPKVAPKTVEKPKTPAKKPVEISPSTKENTKTKKVSDDEFVDSDDSFDTFTPITVKKKTPEKRKETPKKKELPSVKKEFPKKQSIPVKKEKETPQKKALSVKKDPPKVTSESSSSSQVSTSSVVFQPKPSGPPPALSWVDKYKPKRMGELVGQNGDKSPINKLLEWIKDWAKHNLGEGAKIKKPKPAPWMSSQDGTSFKAALLSGSPGVGKTTCAYMACQQLGLQLVEMNASDVRSKKHLEAKIGELSGSHQIEQFFGAKKCAPQDNQKVHHILIMDEVDGMSGNEDRAGISELIQIIKESKIPIICICNDRQHPKIRTLANYCYDLRFPKPRVETIRSRMMTICSQEKMKIGKEELDEIIELSGHDVRQTIYNLQMRSKGVGAKINQKDMAVDAFSAARRLLDSRTTLMEKQEMFFTDYGIMPLFVQDNYLNMKNEKHSPIQAIRGIRKAADFISLGDLIDRQIRGGGSWKLLNEQSMISAALPAIATGGHLKAMIQFPSWLGKNSTAGKRKRLLQQLVQHTHLKVSAGTHSFATDYAPMLRQKITKPLLEHEADGIPDVISTMTEYDLIKDDTEALTEIVAWPGKIDPASKILSKVKASLTRTLNKTGRMLPYSMDSVSKGKKRGVNSIGIEMDEEGNLVEKFEDEDGESDNEDNEEKTTDVVIKVRTGGGAGASKSARGGRGGGRARGGRGSKK	not soluble
MSTLAPLFLAKHPDGEERQVIRPNVWETSCADTETLSIFHIEGMADPDLLCRVLNLFAVQSFTPERVRADREDHKIRLLLTFPGLSQHRASVIAEKLRSLVTVLAVRLEFSPHAGKVRPSVSEPLLASVV	not soluble
